In patent US20160115241A1 (Amgen, published 2016):
Blank lines part the entries; values can stand above or below the binder they belong to.

How the values were obtained:
[1] = target: T1, cynomolgus monkey CD3 epsilon chain (CD3ε) (cynomolgus monkey (Macaca fascicularis), UniProt Q95LI5 22-198); experiment: FACS on isolated cynomolgus monkey T cells; FITC anti-human light chain secondary
T1 construct: also called cynomolgus monkey CD3ε; CD3ε on cyno T cells
T1 chain: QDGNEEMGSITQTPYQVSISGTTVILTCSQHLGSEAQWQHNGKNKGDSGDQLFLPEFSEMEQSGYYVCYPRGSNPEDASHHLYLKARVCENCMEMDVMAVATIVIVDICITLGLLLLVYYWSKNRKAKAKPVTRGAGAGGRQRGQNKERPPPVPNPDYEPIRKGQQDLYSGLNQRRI
Protocol: (§1) The heterodimeric bispecific antibodies described in Example 1 were produced in HEK 293 cells and were assayed by fluorescence activated cell sorting (FACS) for binding to T cells, which express CD3ε, and to a human ovarian cancer cell line, Ovcar-8, which expresses mesothelin. Briefly, the heterodimeric bispecific antibodies were incubated with about 50,000 Ovcar-8 cells or isolated human or cynomolgus monkey T cells at 4° C. for one hour. The cells were then washed and stained with a fluorescein isothiocyanate (FITC)-conjugated anti-human light chain secondary antibody and analyzed by flow cytometry. The relative binding was represented by the geometric mean of fluorescence intensity.

[2] = target: T1, cynomolgus monkey CD3 epsilon chain …; experiment: cell-based or functional assay
[3] = target: T2, human CD3 epsilon chain (CD3ε) (human, UniProt P07766 22-207); experiment: FACS on isolated human T cells; FITC anti-human light chain secondary
T2 construct: also called CD3ε on human T cells; human CD3ε
T2 sequence (P07766 22-207 limits assumed): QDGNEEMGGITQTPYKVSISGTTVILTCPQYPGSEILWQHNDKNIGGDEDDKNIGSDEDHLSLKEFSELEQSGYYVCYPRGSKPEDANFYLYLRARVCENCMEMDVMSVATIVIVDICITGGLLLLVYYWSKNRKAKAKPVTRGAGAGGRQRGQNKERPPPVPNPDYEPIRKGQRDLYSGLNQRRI
Protocol: as §1

FACS binding (geometric mean) [1]: 110 geometric mean of fluorescence intensity | Cyno TDCC EC50 (pM), Ovcar-8 target cells with cynomolgus monkey T cells [2]: 18.8 pM | FACS binding (geometric mean) [3]: 11 geometric mean of fluorescence intensity
B1: H69072.4 (anti-MSLN/CD3ε heterodimeric bispecific antibody) (bispecific antibody)
chain 1: DIQMTQSPSSVSASVGDRVTITCRASQGISSWLAWYQQKPGKAPKLLIYAASSLQSGVPSRFSGSGSGAAFTLTISSLQPEDFATYFCQQANSFPLTFAGGTKVDIKRGGGGSGGGGSQVQLQESGPGLVKPSQTLSLTCTVSGGSINNNNYYWTWIRQHPGKGLEWIGYIYYSGSTFYNPSLKSRVTISVDTSKTQFSLKLSSVTAADTAVYYCAREDTMTGLDVWGQGTTVTVSSASTKGPSVFPLAPCSRSTSESTAALGCLVKDYFPEPVTVSWNSGALTSGVHTFPAVLQSSGLYSLSSVVTVPSSNFGTQTYTCNVDHKPSNTKVDKTVGGGGSAAAVPRDLEVVAATPTSLLISWDAPHHGVAYYRITYGETGGNSPVQEFTVPGSKSTATISGLKPGVDYTINVYAVLAYPRGYPLSKPISINYRTDYKDDDDKGSSHHHHHH
chain 2: DIQMTQSPSSLSASVGDRVTITCRASQSINNYLNWYQQKPGKAPTLLIYAASSLQSGVPSRFSGSRSGTDFTLTISSLQPEDFAAYFCQQTYSNPTFGQGTKVEVKGGGGSGGGGSQVQLVESGGGVVQPGRSLRLSCAASGFTFSSYGMHWVRQAPGKGLEWVAVISYPGNTKYYADSVKGRFTISRDNSKNTLYLQMNSLRAEDTAVYFCARDQKEWRLIFDYWGQGTLVTVSSRTVAAPSVFIFPPSDEQLKSGTASVVCLLNNFYPREAKVQWKVDNALQSGNSQESVTEQDSKDSTYSLSSTLTLSKADYEKHKVYACEVTHQGLSSPVTKSFNRGEC
Cyno TDCC Max killing (%), Ovcar-8 target cells with cynomolgus monkey T cells [2]: 91%

FACS binding (geometric mean) [1]: 276 geometric mean of fluorescence intensity | Cyno TDCC EC50 (pM), Ovcar-8 target cells with cynomolgus monkey T cells [2]: 8.1 pM | FACS binding (geometric mean) [3]: 66 geometric mean of fluorescence intensity
B2: H71365.2 (anti-MSLN/CD3ε heterodimeric bispecific antibody) (bispecific antibody)
chain 1: QVQLVESGGGVVQPGRSLRLSCAASGFTFSSYGMHWVRQAPGKGLEWVAVISYPGNTKYYADSVKGRFTISRDNSKNTLYLQMNSLRAEDTAVYFCARDQKEWRLIFDYWGQGTLVTVSSGGGGSGGGGSQVQLQESGPGLVKPSQTLSLTCTVSGGSINNNNYYWTWIRQHPGKGLEWIGYIYYSGSTFYNPSLKSRVTISVDTSKTQFSLKLSSVTAADTAVYYCAREDTMTGLDVWGQGTTVTVSSASTKGPSVFPLAPCSRSTSESTAALGCLVKDYFPEPVTVSWNSGALTSGVHTFPAVLQSSGLYSLSSVVTVPSSNFGTQTYTCNVDHKPSNTKVDKTVGGGGSAAAVPRDLEVVAATPTSLLISWDAPHHGVAYYRITYGETGGNSPVQEFTVPGSKSTATISGLKPGVDYTINVYAVLAYPRGYPLSKPISINYRTDYKDDDDKGSSHHHHHH
chain 2: DIQMTQSPSSVSASVGDRVTITCRASQGISSWLAWYQQKPGKAPKLLIYAASSLQSGVPSRFSGSGSGAAFTLTISSLQPEDFATYFCQQANSFPLTFAGGTKVDIKRGGGGSGGGGSDIQMTQSPSSLSASVGDRVTITCRASQSINNYLNWYQQKPGKAPTLLIYAASSLQSGVPSRFSGSRSGTDFTLTISSLQPEDFAAYFCQQTYSNPTFGQGTKVEVKRTVAAPSVFIFPPSDEQLKSGTASVVCLLNNFYPREAKVQWKVDNALQSGNSQESVTEQDSKDSTYSLSSTLTLSKADYEKHKVYACEVTHQGLSSPVTKSFNRGEC
Cyno TDCC Max killing (%), Ovcar-8 target cells with cynomolgus monkey T cells [2]: 86%
